In the supplement of paper PMC10567573:

B1: MYBL2 (parent)
chain: IAKHLKGRLGKQCRERWHNHLNPE

Variants of: B1
Test: protein stability index of a GFP-peptide fusion (GPS, HEK-293T) (PSI 1-6); higher = more stable
Conditions: c terminus: a fixed tail appended
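Further: lentivirally expressed fusions sorted by FACS into six bins by GFP to DsRed ratio, PSI derived from sequencing read proportions per bin multiplied by bin number.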

Protein stability index of substitutions, site by site:
N19: C 1.54; R 2.31; D 2.05; I 3.11; E 2.24; P 1.02; T 1.9; M 1.63; Q 2.02; A 1.41; V 2.05; G 2.8; K 1.72; S 1.91; Y 3.59; L 2.63; F 2.58; W 2.24; H 1.73
K6: A 1.7; W 1.27; G 1.67; P 2.03; T 2.21; V 2.45; S 1.81; M 1.97; R 1.67; Q 1.56; Y 1.77; N 2.21; E 1.55; L 4.25; D 2.46; C 2.59; F 2.94; H 1.91
E15: K 2.18; S 1.23; T 2.5; C 2.38; V 2.12; Y 2.12; G 1.9; W 3.6; A 2.17; R 1.96; F 2.26; L 2.48; M 3.02; I 1.96; H 1.25; Q 1.49; P 1.63; N 1.69; D 1.73
G7: W 2.74; A 2.94; K 1.77; Q 1.65; E 1.88; V 2.45; Y 2.14; H 3.17; I 2.31; D 2.61; M 1.77; C 1.6; N 1.82; P 2.14; R 2.2; L 2.71; S 2.39; F 2.25; T 2.25
G10: Y 2.49; T 2.16; I 2.44; R 1.67; E 1.48; H 1.35; Q 1.96; V 2.54; K 1.61; S 1.99; L 1.94; P 2.22; F 3.24; W 2.56; N 2.52; D 1.83; A 1.92; C 1.74
K11: A 2.06; Q 1.79; G 3.92; H 2.41; R 1.95; T 1.67; I 1.97; P 1.75; V 2.12; D 2.47; W 2.44; M 2.69; F 1.4; E 2.46; N 2.43; C 2.09; S 2.43; Y 2.02; L 2.36
R16: A 2.21; Q 2.12; G 1.71; P 1.96; F 2.19; T 2.13; W 4.03; S 1.85; K 2.66; M 2.39; H 1.58; N 2; Y 2.41; L 2.06; C 2.13; I 1.54; V 2; D 2.08; E 2.58
W17: D 2.4; R 2.4; E 3.22; K 2.94; N 2.8; A 2.35; S 2.53; F 2.81; C 2.3; Q 2.71; L 2.96; P 3.13; I 2.14; G 2.52; V 2.08; Y 2.38; M 2.31; T 2.69; H 2.69
L21: F 1.91; I 2.29; T 2.3; H 1.75; K 2.79; E 2.88; P 2.97; Y 1.85; W 1.79; M 1.47; N 2.22; A 2.16; V 2.23; R 2.34; S 1.97; G 1.98; C 1.69; D 2.17; Q 2.47
R14: W 1.82; C 1.77; Y 2.12; F 1.47; A 2; S 1.5; Q 2.52; K 1.87; T 2.61; P 2.64; G 2.03; N 2.62; L 1.63; E 2.59; H 2.3; M 1.29; I 1.83; V 1.74; D 2.56
P23: G 2.03; K 2.26; V 2.46; Q 1.79; A 2.62; M 2.21; I 2.14; S 1.49; E 1.85; D 1.89; C 2.4; L 1.66; R 2.11; H 2.1; N 1.93; T 2.19; F 3.01
R8: E 2.14; M 1.74; T 1.63; I 1.53; Q 1.76; P 2.65; C 2.23; A 1.97; H 1.91; V 1.6; S 1.8; D 2.41; W 2.73; N 1.61; Y 1.9; G 1.81; K 2.11
N22: M 2.58; I 2.09; L 2.24; E 2.42; P 1.35; W 2.6; F 2.7; V 2.44; D 2.06; K 1.51; T 2.53; R 1.64; A 1.73; H 1.91; Q 2.05; C 1.92; S 2.29; Y 2.45; G 1.43
C13: R 2.3; N 3.21; S 2.14; M 2.01; T 2.08; G 2.54; D 2.57; P 2.57; K 2.34; F 1.65; E 2.68; L 1.87; W 2.19; V 1.97; Y 1.64; A 2.55; H 2.33; Q 1.96; I 2.58
H20: Q 1.84; S 1.54; C 2.44; F 1.92; D 1.96; G 1.87; N 2.1; I 1.77; M 1.06; R 1.21; W 2.57; T 2.09; P 2.41; Y 1.62; K 2.18; A 1.69; E 2.35; V 2.58; L 2.42
H18: L 1.55; G 1.85; F 2.24; C 1.8; D 1.85; I 2.73; S 1.47; N 2.33; P 1.9; R 1.56; Y 1.67; T 2.97; K 2.87; V 1.1; E 1.82; A 1.61; Q 2.43
Q12: L 2.32; D 1.93; A 1.29; W 1.93; P 1.54; R 2.44; K 1.51; S 2.77; N 1.38; F 2.08; V 1.61; G 3.02; Y 2.33; C 2.53; H 2.38; T 1.55; I 2.97; M 1.92; E 1.92
L9: D 3.01; M 2.45; P 2.28; N 2.31; T 1.99; I 1.43; S 2.55; G 2.45; A 1.76; Q 2.06; H 2; W 1.67; R 2.72; K 2.5; Y 2.24; V 2.18; E 2.73; C 2.08; F 1.7
